Target: human alpha-thrombin (Homo sapiens, UniProt P00734;P00734 P00734:328-363,P00734:364-622)
Assay: MST; 100 nM aptamer titrated with 0-16580 nM thrombin; 10% human serum, 1x SSC (150 mM NaCl, 15 mM Na3-citrate, pH 7.2), 5 mM KCl, 1 mM CaCl2, 1 mM MgCl2; IR-laser t

TGGTTGGTGTGGTTGGT (ssDNA) [Cy5-labelled thrombin DNA aptamer]
binding result: binds
